Measured values reported in patent US20120130045A1, “BIOMOLECULE-POLYMER CONJUGATES AND METHODS OF MAKING SAME” (ABLITECH, INC., priority 2009, published 2012).

Key:
DNase I = DNase I digestion monitored by TLC; assay type: in vitro ADME; settings: for DNase I digestion after six hours (TLC, FIG. 6): model oligonucleotide
From the text: Nucleases and proteases are common and result in extremely short half-life for biomolecules not protected from the in vivo environment. In addition, carboxylesterases (CES) are known to be present in many cancerous tumor cells. Therefore, the ability of the biomolecule-polymer conjugates of the disclosure to withstand degradation in the presence of fetal calf serum (FCS) and either DNase I, or 51 nuclease is investigated, as well as the ability of carboxylesterase 1 to degrade the biomolecule-polymer conjugates and release the biomolecule.
Concentrations of treatments were as follows: FCS (30%), DNase I (30 units), 51 nuclease (10 units). Digestions were conducted at 37° C. and monitored by either thin layer chromatography or gel electrophoresis.

[1] = test system: bacterial 16S ribosomal RNA gene; assay: PCR amplification with 8F primer conjugates, gel electrophoresis; assay type: biochemical
From the text: The retention and recovery of the original functionality of the biomolecule is a characteristic of the conjugates of the disclosure. In order to test the ability of an oligonucleotide-polymer conjugate of the disclosure to functionally bind its complementary sequence, PCR primers were utilized. The universal bacterial primers 8F (5′-[…]-3′, SEQ ID NO:2) and 1392R (5′-ACGGGCGGTGTGTACA-3′, SEQ ID NO:3) were used to amplify a portion of the bacterial 16S ribosomal RNA gene. The 8F primer conjugated to MPEG-550 networked with MPEG-550 were prepared according to Examples 7 and 9 above, and subjected to DNase I degradation studies.
The MPEG550 conjugate and the MPEG550-networked-conjugate were then treated with NH4OH to release the PCR primers from the MPEG550 via chemical degradation and PCR amplification was then performed. Each 50-μl PCR mixture contained 1 μl template DNA (either E. coli. or an environmental isolate belonging to the genus Streptomonospora), 2 U Taq DNA polymerase (Eppendorf), 1×Taq buffer, […] Mg(OAc)2, 1×Taq Master PCR Enhancer, each deoxynucleoside triphosphate at a concentration of 20 μM, and each primer at a concentration of 0.4 μM. The PCR conditions were 85° C. for 5 min, 30 cycles of 94° C. for 45 s, 55° C. for 1 min, and 72° C. for 90 s, with a final 7 min extension at 72° C.

Row | Substance | DNase I digestion after six hours (TLC, FIG. 6) (DNase I; DNase I 30 units, 37° C.) | PCR amplification product after NH4OH treatment (1% agarose gel) ([1]; conjugate cleaved in NH4OH for 15 minutes and 18 hours before PCR) | PCR amplification product (1% agarose gel) ([1]; each primer 0.4 μM, with 1392R primer, 30 cycles) | DNase I digestion after one hour (TLC, FIG. 9) (DNase I; 8F PCR primer conjugates, DNase I, one hour) | DNase I digestion after one hour (TLC, FIG. 5) (DNase I; DNase I 30 units, 37° C., one hour, model oligonucleotide of Example 1) | DNase I digestion after 3 hours following NH4OH treatment (TLC, FIG. 7) (DNase I; conjugate treated with NH4OH to cleave the L-X bond, then DNase I, 3 hours)
1 | 5′-TTTTATTTTATTTTATTTTA-3′ (model oligonucleotide, sugar chemistry not given here, further chemistry not given here) [native model oligonucleotide, reference compound] | completely digested |  |  |  |  | 
2 | MPEG550 conjugate: universal bacterial 8F PCR primer (SEQ ID NO:2) conjugated to MPEG-550 according to Example 7 (DNA AGAGTTTGATCCTGGCTCAG; primer conjugated to MPEG-550, position not given here) |  | yielded the appropriate size amplification product | functional and yielded the appropriate size amplification product | resistant to nuclease degradation |  | 
3 | oligonucleotide-MPEG conjugate: model oligonucleotide of Example 1 (SEQ ID NO:1) conjugated to MPEG550 (methoxy-terminated PEG, MW 550) (TTTTATTTTATTTTATTTTA; DNA, backbone not given here; conjugated to MPEG550 via propargyl chloroformate chemistry, further chemistry not fully specified) | remained intact |  |  |  | resistant to DNase I treatment | allowed for degradation by DNase I
